Test results published in patent US20050169909A1 (TANOX, published 2005).
Where two headings read alike, the source gives them in different places.

Experiments:
[1] = target: T1, recombinant human IgE, SE44 (human, UniProt P01854-1 1-428); assay: ELISA titration of Fab on plate-coated SE44 (Example 6)
T1 construct: The IgE used as antigen in the ELISA screens (coated, or biotinylated); also called monoclonal human IgE (SE44); biotinylated SE44
Protocol: (§1) The constructed library was subjected to an ELISA screen for improved binding to the recombinant human IgE, SE44. Clones with binding affinity greater than murine TES-C21 Fab were isolated and sequenced. Clone ID #4, 49, 72, 76, and 136 were further characterized.
(§2) Plates were coated with 0.25 ug/mL (for purified Fab 0.1 ug/ml) SE44 in carbonate coating buffer overnight at 4° C. Coating solution was removed and the plates were blocked with 200 uL/well 3% BSA/PBS for 1 hour at 37° C.

human IgE [2] = target: T2, human IgE (human, UniProt P01854-1 1-428); assay: relative to parent TES-C21
T2 construct: it may be SE44; also called intact human IgE; biotinylated IgE
T2 sequence (P01854 other isoform, or with tags, fused parts or gaps): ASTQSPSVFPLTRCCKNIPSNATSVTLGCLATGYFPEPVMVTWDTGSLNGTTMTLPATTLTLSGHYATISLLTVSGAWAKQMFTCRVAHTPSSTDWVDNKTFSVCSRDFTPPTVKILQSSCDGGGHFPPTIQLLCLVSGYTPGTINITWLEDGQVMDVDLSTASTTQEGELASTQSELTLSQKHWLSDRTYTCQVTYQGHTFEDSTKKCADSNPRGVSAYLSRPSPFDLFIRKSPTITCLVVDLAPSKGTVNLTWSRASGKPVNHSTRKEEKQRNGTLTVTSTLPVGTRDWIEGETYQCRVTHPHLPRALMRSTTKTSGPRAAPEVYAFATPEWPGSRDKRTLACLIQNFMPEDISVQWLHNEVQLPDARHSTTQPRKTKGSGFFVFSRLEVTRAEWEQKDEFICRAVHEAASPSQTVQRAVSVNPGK

human IgE [3] = target: T2, human IgE; assay: method not stated at the table (Example 10 lists Biacore analysis); target IgE taken from context
human IgE [4] = target: T2, human IgE; assay: soluble receptor assay: inhibition of the binding of biotinylated IgE to plate-coated FcεRI alpha chain (Example 8)
Protocol: A 96 well assay plate suitable for ELISA was coated with 0.05 mL 0.5 μg/mL FcεRI alpha-chain receptor coating buffer (50 mM carbonate/bicarbonate, pH 9.6) for 12 hours at 4-8° C. The wells were aspirated and 25 μL blocking buffer (PBS, 1% BSA, pH 7.2) was added and incubated for 1 hour at 37° C. In a separate assay plate the samples and reference TES-C21 MAbs were titered from 200 to 0.001 μg/mL by 1:4 dilutions with assay buffer (0.5% BSA and 0.05% Tween 20, PBS, pH 7.2) and an equal volume of 100 ng/mL biotinylated IgE was added and the plate incubated for 2-3 hours at 25° C. The FcεRI—coated wells were washed three times with PBS and 0.05% TWEEN 20 and 50 μL from the sample wells were transferred and incubated with agitation for 30 minutes at 25° C. Fifty/μL/well of 1 mg/mL Streptavidin-HRP, diluted 1:2000 in assay buffer, was incubated for 30 minutes with agitation and then the plate was washed as before. Fifty μL/well of TMB substrate was added and color was developed. The reaction was stopped by adding an equal volume of 0.2 M H₂SO₄ and the absorbance measured at 450 nm.

[5] = target: T1, recombinant human IgE, SE44; assay: ELISA titration of Fab on plate-coated SE44 (Example 6); remark: listed apart in the source
Protocol: as §1, §2

T1 sequence (P01854 other isoform, or with tags, fused parts or gaps): as above

Binder | EC50 (read off the curve) [1] [µg/mL] | Fold Increase in Binding Affinity (human IgE [2]) [fold] | Kd (human IgE [3]) [pM] | IC50 (read off the curve) (human IgE [4]) [µg/mL] | EC50 (read off the curve) [5] [µg/mL]
humanized TES-C21 Fab clone 136 (Fab, V domains shown, Retains 5 murine heavy chain framework residues; light chain framework is 100% human; also called Clone ID #136; Humanized clone 136) VH: QVQLVQSGAEVMKPGSSVKVSCKASGYTFSMYWLEWVRQAPGHGLEWMGEISPGTFTTNYNEKFKARVTFTADTSTSTAYMELSSLRSEDTAVYYCARFSHFSGSNYDYFDYWGQGTLVTVSS VL: EIVMTQSPATLSVSPGERATLSCRASQSIGTNIHWYQQKPGQAPRLLIYYASESISGIPARFSGSGSGTEFTLTISSLQSEDFAVYYCQQSDSWPTTFGGGTKVEIK | ~0.04 |  |  |  | 
Anti-IgE CL-5A (antibody, V domains shown, ATCC PTA-5679; also called MAb 1(CL-5A); clone 5A) VH: QVQLVQSGAEVMKPGSSVKVSCKASGYTFSWYWLEWVRQAPGHGLEWMGEIEPGTETTNYNEKFKARVTFTADTSTSTAYMELSSLRSEDTAVYYCARFSHFSGSNYDYFDYWGQGTLVTVSS VL: EIVMTQSPATLSVSPGERATLSCRASQSIGTNIHWYQQKPGQAPRLLIYYASESISGIPARFSGSGSGTEFTLTISSLQSEDFAVYYCQQSWSWPTTFGGGTKVEIKT |  | 3890 | 0.158 |  | 
Anti-IgE CL-2C (antibody, V domains shown, ATCC PTA-5678; also called MAb 2 (CL-2C); clone 2C) VH: QVQLVQSGAEVMKPGSSVKVSCKASGYTFSWYWLEWVRQAPGHGLEWMGEIDPGTFTTNYNEKFKARVTFTADTSTSTAYMELSSLRSEDTAVYYCARFSHFSGSNYDYFDYWGQGTLVTVSS VL: EIVMTQSPATLSVSPGERATLSCRASQSIGTNIHWYQQKPGQAPRLLIYYASESISGIPARFSGSGSGTEFTLTISSLQSEDFAVYYCQQSWSWPTTFGGGTKVEIKT |  | 417 | 1.47 | ~0.3 | 
Anti-IgE CL-5I (antibody, V domains shown, ATCC PTA-5680; also called MAb 3 (CL-5I)) VH: QVQLVQSGAEVMKPGSSVKVSCKASGYTFSMYWLEWVRQAPGHGLEWMGEIDPGTFETNYNEKFKARVTFTADTSTSTAYMELSSLRSEDTAVYYCARFSHFSGSNYDYFDYWGQGTLVTVSS VL: EIVMTQSPATLSVSPGERATLSCRASQSIGTNIHWYQQKPGQAPRLLIYYASESISGIPARFSGSGSGTEFTLTISSLQSEDFAVYYCQQSWSWPTTFGGGTKVEIKT |  | 191 | 3.2 |  | 
C21 (Fab, V domains shown, also called parent Fab of TES-C21; murine TES-C21 Fab) VH: QVQLQQSGAELMKPGASVKISCKTTGYTFSMYWLEWVKQRPGHGLEWVGEISPGTFTTNYNEKFKAKATFTADTSSNTAYLQLSGLTSEDSAVYFCARFSHFSGSNYDYFDYWGQGTSLTVSS VL: DILLTQSPAILSVSPGERVSFSCRASQSIGTNIHWYQQRTDGSPRLLIKYASESISGIPSRFSGSGSGTEFTLNINSVESEDIADYYCQQSDSWPTTFGGGTKLEIK | ~0.05 |  |  |  | ~0.05
murine anti-IgE monoclonal antibody TES-C21 (antibody, V domains shown, Murine parent antibody; also called murine mAb TES-C21; parent TES-C21) VH: QVQLQQSGAELMKPGASVKISCKTTGYTFSMYWLEWVKQRPGHGLEWVGEISPGTFTTNYNEKFKAKATFTADTSSNTAYLQLSGLTSEDSAVYFCARFSHFSGSNYDYFDYWGQGTSLTVSS VL: DILLTQSPAILSVSPGERVSFSCRASQSIGTNIHWYQQRTDGSPRLLIKYASESISGIPSRFSGSGSGTEFTLNINSVESEDIADYYCQQSDSWPTTFGGGTKLEIK |  |  | 614 |  | 
